Data published in patent US12018068B2, “Anti-O1 antibodies and uses thereof” (priority 2016, dated 2024).

Experiments:
LPS (O1) = test: LPS neutralization assay, RAW264.7-lux NF-κB luciferase reporter; format: cell-based, murine
Description: LPS neutralization was assayed by utilizing a murine RAW264.7 macrophage cell line carrying a firefly luciferase reporter gene under the control of an NF-κB-responsive promoter (RAW264.7-lux). Serially diluted antibody stocks were mixed with LPS in a 1:1 ratio and incubated at 4° C. for 1 hr. Antibody/LPS mixture was then diluted 1:10 into assay plates containing pre-seeded RAW264.7-lux cells (5e3 cells/well), which were then placed at 37° C./5% CO2 for 2.5 hours. Following incubations, Steady Glo (Promega) was then added to each well and incubated for another 20 min protected from light. The relative light units (RLUs) were then measured using an Envision Multilabel plate reader (Perkin Elmer). The percentage of inhibition was determined by comparing RLU derived from assays with no antibodies to RLU obtained from anti-K. pneumoniae mAbs and a negative control mAb. Activation of TLR4 receptors by bacterial LPS leads to downstream activation of the NF-κB transcriptional regulator. A decrease in induction of NF-κB-responsive luciferase activity was used to quantify LPS neutralization activity by LPS mAbs.

purified O1 LPS = test: ELISA binding to purified O1 LPS; parameters: species or system Klebsiella pneumoniae; settings: FIG. 1A
Description: Binding to purified O1 LPS was assayed by standard ELISA method. Briefly, ELISA plates (Nunc MaxiSorp) were coated with purified O1 LPS in PBS, pH 7.2, overnight at 4 C, followed by blocking the plates with PBS supplemented with 1% BSA (PBS-B). The coated plates were incubated with series dilutions of monoclonal antibodies for 1 h at room temperature. The plates were then washed with PBS containing 0.1% Tween-20 (PBS-T) before HRP-conjugated anti-human secondary antibodies were added for 1 hour followed by TMB TMB (3,3′,5,5′-Tetrametheylbenzidine) substrates. The absorbance of 450 nm was measured by microplate reader (Molecular Devices) and the data were plotted with Prism software.

[1] = system: K. pneumoniae strain Kp4211 lux; test: high throughput serum bactericidal assay (SBA), complement-dependent killing; format: cell-based, Klebsiella pneumoniae; settings: for complement-dependent killing in SBA: FIG. 1B; for complement-dependent killing (SBA) in primary screening: strain Kp4211 (LPS-O1)
Description: Peripheral blood mononuclear cells (PBMC) and sera were separated from buffy coats from healthy blood donors (N=567). PMBC were stored in liquid nitrogen whereas the plasma was stored at 4° C. To identify Klebsiella pneumoniae immune donors, all the available sera were tested for binding to Kp43816 and Kp4211 (LPS-O1 serotype), as well as to the unencapsulated mutant strain Kp43816ΔcpsB and the double mutant Kp43816ΔcpsBΔwaaL. […] In addition, all available sera were tested for their bactericidal activity in the presence of complement using a high-throughput serum bactericidal assay (SBA assay). Overnight cultures of luminescent K. pneumoniae strain 4211 (lux) were diluted in Muller Hinton II media to make OD600 to be 0.003. Equal volume of sera, 4211 lux, and baby rabbit serum (Cedarlane) were mixed in 384 well plates and incubated at 37° C. for two hours with shaking (250 rpm). The relative light units (RLUs) were then measured using an Envision Multilabel plate reader (Perkin Elmer). The percentage of killing was determined by comparing RLU derived from assays with no antibodies to RLU obtained from human sera.
The susceptibility of the K. pneumoniae strain Kp4211 lux to serum and antibody dependent killing was measured by high throughput serum bactericidal assay (SBA). Overnight cultures of luminescent K. pneumoniae strain 4211 (lux) were diluted in Muller Hinton II media to make OD600 to be 0.003. Equal volume of antibodies, 4211 lux, and baby rabbit serum (Cedarlane) were mixed in 384 well plates and incubated at 37° C. for two hours with shaking (250 rpm). The relative light units (RLUs) were then measured using an Envision Multilabel plate reader (Perkin Elmer). The percentage of killing was determined by comparing RLU derived from assays with no antibodies to RLU obtained from anti-K. pneumoniae mAbs and a negative control mAb.

[2] = system: Klebsiella pneumoniae of the LPS-O1 serotype; test: primary screening, binding to whole bacteria
Source text: KPA27 and KPE33 were isolated from the peripheral blood of two different immune donors: #487 and #262, respectively. […] KPA27 and KPE33 were isolated from immune donors as IgG2 antibodies.
KPB202 and KPJ4 were isolated from tonsillar B cells of two different donors: T6 (KPB202) and T8 (KPJ4). […] KPB202 and KPJ4 were isolated from donors as IgG1 and IgG2 antibodies, respectively.

[3] = system: K. pneumoniae capsule mutant strain 43816ΔcpsB Lux; test: bioluminescent opsonophagocytic killing (OPK) assay with HL-60 cells; format: cell-based, Klebsiella pneumoniae; settings: for induction of OPK killing: FIG. 1C
Description: (§1) PBMC donors were ranked based on their binding titers as well as their SBA and OPK activity. OPK assays were performed as described with modifications (Wang, Q. et al. Target-Agnostic Identification of Functional Monoclonal Antibodies Against Klebsiella pneumoniae Multimeric MrkA Fimbrial Subunit J Infect Dis. 2016 Jun. 1; 213(11):1800-8). Briefly, log phase cultures of luminescent K. pneumoniae capsule mutant strain 43816ΔcpsB (43816ΔcpsB Lux) were diluted to ˜2×10^6 cells/ml. Bacteria, diluted baby rabbit serum providing complement (Cedarlane, pre-absorbed with Kp43816ΔcpsB, 1:10), dimethylformamide (DMF) differentiated HL-60 cells, and sera were mixed in 384-well plates and incubated at 37° C. for two hours with shaking (250 rpm). The relative light units (RLUs) were then measured using an Envision Multilabel plate reader (Perkin Elmer). The percentage of killing was determined by comparing RLU derived from assays with no antibodies to RLU obtained from human sera.
as §1, with “OPK” for “PBMC donors were ranked based on their binding titers as well as their SBA and OPK activity. OPK”, “al., J. Infect.” for “al. Target-Agnostic Identification of Functional Monoclonal Antibodies Against Klebsiella pneumoniae Multimeric MrkA Fimbrial Subunit J Infect”, “213:1800-8 (2016)).” for “2016 Jun. 1; 213(11):1800-8).”, “antibodies” for “sera”, “anti-K. pneumoniae mAbs and a negative control mAb.” for “human sera.”

O1 LPS = test: Octet binding affinity to O1 LPS; parameters: species or system Klebsiella pneumoniae; settings: average, from on-rate and off-rate, read-out: affinity constant (KD) to O1 LPS
Source text: In order to reduce potential sequence liabilities for antibody development including potential immunogenicity due to anti-drug antibodies, an unpaired Cysteine in the light chain CDR3 of KPE33 was exchanged with Threonine (T), and somatic mutations in the frameworks 1, 2, and 4 of KPE33 were replaced with germ line residues (as summarized in FIG. 5). CDRs were maintained as wildtype, except for the C107T substitution described above. The optimized KPE33 was named KPE33v2016. […] This platform provides a powerful tool to measure the rate of biomolecular complex formation and complex stability in a more biologically meaningful setting. Briefly, Protein A coated sensors were coated with 2 μg/mL O1 LPS for 10 minutes before being dipped into solution containing 0.2 μg/mL anti-O1 LPS mAbs in Kinetics buffer (ForteBio, dilute 10× to 1× with PBS). Changes in the number of molecules bound to the biosensor caused a shift in the interference pattern that was recorded in real time. […] The affinity constant (KD) of KPE33 and KPE33v2016 to O1 LPS was calculated based on the on-rate and off-rate from Octet sensorgram.
KPE33v2016 was further optimized, thereby creating two new variants—KPE33 H32+L2016(1EQ) and KPE33 H33+L2016(1EQ). Both of these variants contain a Methionine to Isoleucine mutation adjacent to CDRH1, a Tryptophan to Tyrosine mutation in CDRH2, an Aspartate to Glutamate mutation adjacent to CDRH2, Asparagine to Glutamine and Methionine to Leucine mutations in FRH3 and an Aspartate to Asparagine mutation in CDRH3. In addition, KPE33 H32+L2016(1EQ) had four FRH3 residues changed to the germ-line residues, whereas KPE33 H33+L2016(1EQ) only has three of the same FRH3 residues changed to the germ-line. Both of these variants contain the same light chain as KPE33v2016, but with a single Glutamate to Glutamine mutation in residue 1.

| Molecule | LPS neutralization (LPS (O1)) | binding to purified O1 LPS (purified O1 LPS) | SBA Kp4211lux IC50 [1] [mg/L] | complement-dependent killing in SBA [1] | complement-dependent killing (SBA) in primary screening [1] | binding to bacteria in primary screening [2] | D Capsule OPK IC50 [3] [mg/L] | induction of OPK killing [3] | LPS Neut (O1) IC50 (LPS (O1)) [mg/L] | Kd (O1 LPS) [nM] |
| --- | --- | --- | --- | --- | --- | --- | --- | --- | --- | --- |
| KPA27: human anti-O1 antigen antibody, VH SEQ ID NO:21, VL SEQ ID NO:22, isolated as IgG2 (antibody, V domains shown, KPA27 VH Amino Acid Sequence; KPA27 VL Amino Acid Sequence) VH: QVQLVQSGAEVKKPGASVKVSCKASENTFNDFYMHWVRQAPGQGLEWMGWIHPDGVVTNYAQKFQGRVTMTRDTSINTVYMELNGLISDDTAVYYCMRDGPGSEGSWFDYWGQGTLVTVSS VL: DIQMTQSPSTLSASVGDRVTITCRASQPVSNRLAWYQQKPGRAPTLLIYKASTLQSGVPLRFSGSGSGTEFTLTISSLQSDDFATYYCQQSQTFGQGTKVEIK | did not | bound to purified O1 LPS | 1.625 | kill K. pneumoniae via complement-dependent killing | mediate complement-dependent killing | bind to Klebsiella pneumoniae of the LPS-O1 serotype | 0.67 | induced OPK killing | – | – |
| KPB202: human anti-O1 antigen antibody from tonsillar B cells, VH SEQ ID NO:39, VL SEQ ID NO:40, IgG1 (antibody, V domains shown, KPB202 VH Amino Acid Sequence; KPB202 VL Amino Acid Sequence) VH: EVQLVESGGGLVQPGGSLSLSCAASGFTFSNFWVGWGRQAPGKGLEWVANINPDGSEKYYVDSVKGRVTISRDNAKNSLSLQMNSLRVEDAAVYYCARLGPFHPDCWGQGTLVTVSS VL: DVVMTQSPLSLPVTLGQPASISCRSSQSLVHSDGNTYLNWFQQRPGQSPRRLIYEVSNRDSGVPDRFSGSGSGTDFTLKISRVEAEDIGVYYCMQGTHWPWTFGQGTKVEIK | neutralized LPS | bound to purified O1 LPS | 0.0006 | kill K. pneumoniae via complement-dependent killing | mediate complement-dependent killing | bind to Klebsiella pneumoniae of the LPS-O1 serotype | 0.0009 | induced OPK killing | 0.038 | – |
| KPJ4: human anti-O1 antigen antibody from tonsillar B cells, VH SEQ ID NO:30, VL SEQ ID NO:31, IgG2 (antibody, V domains shown, IgG2 constant regions; KBJ4 VH Amino Acid Sequence; KPJ4 VL Amino Acid Sequence) VH: QVQLQQSGPGLVRPSQTLSLTCAISGDSVSSNTAAWNWIRQSPSRGLEWLGRTYYRSEWYNDYAVSVKSRITINPDTSKNQFSLQLNSVTPEDTAVYYCARISWNDLPAWGQGTLVTVSS VL: DIVMTQSPDSLAVSLGERATINCKSSQSILYSSHNKNYLAWYQQKPGQPPKVLIYWASTRESGVPDRFSGSGSGTDFTLTISNLQAEDVAVYYCQQYCNIPYTFGQGTKLEIK | did not | bound to purified O1 LPS | 0.11 | kill K. pneumoniae via complement-dependent killing | mediate complement-dependent killing | bind to Klebsiella pneumoniae of the LPS-O1 serotype | 0.011 | induced OPK killing | – | – |
| KPE33V2016: sequence optimized KPE33, VH SEQ ID NO:12, VL SEQ ID NO:13 (antibody, V domains shown, KPE33V2016 VH Amino Acid Sequence; KPE33V2016 VL Amino Acid Sequence) VH: EVQLVESGGGLVQPGRSLRLSCAASGFIFDDYAMHWVRQAPGKGLEWVSGIAWKSGATNYADSVKGRFAISRDNSKKSMYLQMNSLGTEDTALYYCTRRRASGDDTFYYFDYWGQGTLVTVSS VL: EIVLTQSPATLSLSPGERATLSCRASQNVNTNLAWYQQKPGQAPRLLIYDASNRATGIPARFSGSGSGTDFTLTISSLEPEDFAVYYCQQTTNWRYTFGQGTKLEIK | – | – | – | – | – | – | – | – | – | 4.13 |
